Assay results published in paper PMC4946879.

Key:
[1] = biological target: HIV-1 Gag CTD-SP1 (residues 281–377 of HIV-1 NL4-3 Gag, P373T) (HIV-1 NL4-3); test: crystal structure; plate crystals of stacked flat hexagonal lattices; 0.1 M Bis-Tris propane, pH 7-8, 0.8-1.0 M LiSO4; sitting drops, 1:2 protein:precipitant; 3.27 Å
[2] = biological target: HIV-1 Gag CTD-SP1 (residues 281–377 of HIV-1 NL4-3 Gag, P373T) (HIV-1 NL4-3); test: crystal structure; other crystal hits from screens with commercial and in-house precipitants; mature-like dimer form of the CTD with disordered SP1 tails; not deposited

Q: Which results are given for “HIV-1 Gag CTD-SP1 (residues 281–377 of HIV-1 NL4-3 Gag, P373T) (domain or fragment)”?
A: stoichiometry N [1]: 6; stoichiometry N [2]: 2
